Data taken from PMC7954794 (2021).

B1: S. cerevisiae Abp1 (full length; SH3 domain 535-592 mutated) / Hua2 (parent complex)
chain 1: MALEPIDYTTHSREIDAEYLKIVRGSDPDTTWLIISPNAKKEYEPESTGSSFHDFLQLFDETKVQYGLARVSPPGSDVEKIIIIGWCPDSAPLKTRASFAANFAAVANNLFKGYHVQVTARDEDDLDENELLMKISNAAGARYSIQTSSKQQGKASTPPVKKSFTPSKSPAPVSKKEPVKTPSPAPAAKISSRVNDNNDDDDWNEPELKERDFDQAPLKPNQSSYKPIGKIDLQKVIAEEKAKEDPRLVQKPTAAGSKIDPSSDIANLKNESKLKRDSEFNSFLGTTKPPSMTESSLKNDDDKVIKGFRNEKSPAQLWAERKAKQNSGNAETKAEAPKPEVPEDEPEGEPDVKDLKSKFEGLAASEKEEEEMENKFAPPPKKSEPTIISPKPFSKPQEPVKAEEAEQPKTDYKKIGNPLPGMHIEADNEEEPEENDDDWDDDEDEAAQPPLPSRNVASGAPVQKEEPEQEEIAPSLPSRNSIPAPKQEEAPEQAPEEEIEEEAEEAAPQLPSRSSAAPPPPPRRATPEKKPKENPWATAEYDYDAAEDNELTFVENDKIINIEFVDDDWWLGELEKDGSKGLFPSNYVSLGN
chain 2: MQQTKFGKMYLDHDSVVEYSEDEIVEADRITLGYKKRLSMIENQMRHLLEDFSLDVQQIEPILADLQKYYDAFLQLLQKRNKSLQCKRSTHQPVPSPMNSQTSTNAKVNLSGKLMKFQLNSVQKFDEENILRILQNKIEFEHYFQIDKGKKQKVLLLAVYQCLNGPTRLHKVLNIEGIIHNNSIRTILGKQVSSSKWTVFLYDVKLVLLAHRQDVPNLETSKMIVRYGDLFPCALYFKDHTAY

Variants of: B1
Assay: DHFR protein-fragment complementation in yeast (Abp1-DHFR F[1,2] x partner-DHFR F[3]), deep mutational scanning, second methotrexate selection vs reference; S. cerevisiae, DHFR-PCA selection in liquid with methotrexate at 30 C, two 72 h selections (the score uses the second); reference = the pre-selection culture

| screen value | Variant |
| --- | --- |
| -0.729 DMS score: mean over two replicates of log2(f_test/f_ref + 0.5)/ln 2, minus the synonymous-codon median (not a log2 … | chain 1 I560N |
| -0.196 DMS score: mean over two replicates of log2(f_test/f_ref + 0.5)/ln 2, minus the synonymous-codon median (not a log2 … | chain 1 I560L |
| -0.964 DMS score: mean over two replicates of log2(f_test/f_ref + 0.5)/ln 2, minus the synonymous-codon median (not a log2 … | chain 1 I560S |
| -2.79 DMS score: mean over two replicates of log2(f_test/f_ref + 0.5)/ln 2, minus the synonymous-codon median (not a log2 … | chain 1 S585H |
| -2.89 DMS score: mean over two replicates of log2(f_test/f_ref + 0.5)/ln 2, minus the synonymous-codon median (not a log2 … | chain 1 S585K |
| -0.716 DMS score: mean over two replicates of log2(f_test/f_ref + 0.5)/ln 2, minus the synonymous-codon median (not a log2 … | chain 1 S585V |
| 0.735 DMS score: mean over two replicates of log2(f_test/f_ref + 0.5)/ln 2, minus the synonymous-codon median (not a log2 … | chain 1 Y543F |
| -2.23 DMS score: mean over two replicates of log2(f_test/f_ref + 0.5)/ln 2, minus the synonymous-codon median (not a log2 … | chain 1 F564H |
| -1.38 DMS score: mean over two replicates of log2(f_test/f_ref + 0.5)/ln 2, minus the synonymous-codon median (not a log2 … | chain 1 F564Q |
| -0.584 DMS score: mean over two replicates of log2(f_test/f_ref + 0.5)/ln 2, minus the synonymous-codon median (not a log2 … | chain 1 E547L |
| -2.64 DMS score: mean over two replicates of log2(f_test/f_ref + 0.5)/ln 2, minus the synonymous-codon median (not a log2 … | chain 1 E547T |
| -0.281 DMS score: mean over two replicates of log2(f_test/f_ref + 0.5)/ln 2, minus the synonymous-codon median (not a log2 … | chain 1 E547D |
| 0.299 DMS score: mean over two replicates of log2(f_test/f_ref + 0.5)/ln 2, minus the synonymous-codon median (not a log2 … | chain 1 S589C |
| 0.35 DMS score: mean over two replicates of log2(f_test/f_ref + 0.5)/ln 2, minus the synonymous-codon median (not a log2 … | chain 1 N592T |
| 0.855 DMS score: mean over two replicates of log2(f_test/f_ref + 0.5)/ln 2, minus the synonymous-codon median (not a log2 … | chain 1 N592Q |
| 0.019 DMS score: mean over two replicates of log2(f_test/f_ref + 0.5)/ln 2, minus the synonymous-codon median (not a log2 … | chain 1 N592M |
| -0.398 DMS score: mean over two replicates of log2(f_test/f_ref + 0.5)/ln 2, minus the synonymous-codon median (not a log2 … | chain 1 N592D |
| 0.212 DMS score: mean over two replicates of log2(f_test/f_ref + 0.5)/ln 2, minus the synonymous-codon median (not a log2 … | chain 1 N592F |
| -0.156 DMS score: mean over two replicates of log2(f_test/f_ref + 0.5)/ln 2, minus the synonymous-codon median (not a log2 … | chain 1 V565D |
| -1.23 DMS score: mean over two replicates of log2(f_test/f_ref + 0.5)/ln 2, minus the synonymous-codon median (not a log2 … | chain 1 V565L |
| -0.425 DMS score: mean over two replicates of log2(f_test/f_ref + 0.5)/ln 2, minus the synonymous-codon median (not a log2 … | chain 1 V565Y |
| -0.833 DMS score: mean over two replicates of log2(f_test/f_ref + 0.5)/ln 2, minus the synonymous-codon median (not a log2 … | chain 1 V565S |

| screen value | Variant |
| --- | --- |
| 0.964 DMS score: mean over two replicates of log2(f_test/f_ref + 0.5)/ln 2, minus the synonymous-codon median (not a log2 … | chain 1 V565W |
| 0.336 DMS score: mean over two replicates of log2(f_test/f_ref + 0.5)/ln 2, minus the synonymous-codon median (not a log2 … | chain 1 E575Q |
| -0.949 DMS score: mean over two replicates of log2(f_test/f_ref + 0.5)/ln 2, minus the synonymous-codon median (not a log2 … | chain 1 E575W |
| -0.317 DMS score: mean over two replicates of log2(f_test/f_ref + 0.5)/ln 2, minus the synonymous-codon median (not a log2 … | chain 1 E575V |
| -0.328 DMS score: mean over two replicates of log2(f_test/f_ref + 0.5)/ln 2, minus the synonymous-codon median (not a log2 … | chain 1 E575I |
| 0.941 DMS score: mean over two replicates of log2(f_test/f_ref + 0.5)/ln 2, minus the synonymous-codon median (not a log2 … | chain 1 G591N |
| 0.673 DMS score: mean over two replicates of log2(f_test/f_ref + 0.5)/ln 2, minus the synonymous-codon median (not a log2 … | chain 1 G591A |
| -0.547 DMS score: mean over two replicates of log2(f_test/f_ref + 0.5)/ln 2, minus the synonymous-codon median (not a log2 … | chain 1 G591W |
| 0.63 DMS score: mean over two replicates of log2(f_test/f_ref + 0.5)/ln 2, minus the synonymous-codon median (not a log2 … | chain 1 G591T |
| 0.0348 DMS score: mean over two replicates of log2(f_test/f_ref + 0.5)/ln 2, minus the synonymous-codon median (not a log2 … | chain 1 W536Y |
| -0.538 DMS score: mean over two replicates of log2(f_test/f_ref + 0.5)/ln 2, minus the synonymous-codon median (not a log2 … | chain 1 W536Q |
| -0.449 DMS score: mean over two replicates of log2(f_test/f_ref + 0.5)/ln 2, minus the synonymous-codon median (not a log2 … | chain 1 W536C |
| -0.26 DMS score: mean over two replicates of log2(f_test/f_ref + 0.5)/ln 2, minus the synonymous-codon median (not a log2 … | chain 1 W536M |
| 0.186 DMS score: mean over two replicates of log2(f_test/f_ref + 0.5)/ln 2, minus the synonymous-codon median (not a log2 … | chain 1 K558T |
| -0.847 DMS score: mean over two replicates of log2(f_test/f_ref + 0.5)/ln 2, minus the synonymous-codon median (not a log2 … | chain 1 K558S |
| -0.301 DMS score: mean over two replicates of log2(f_test/f_ref + 0.5)/ln 2, minus the synonymous-codon median (not a log2 … | chain 1 K576H |
| -0.814 DMS score: mean over two replicates of log2(f_test/f_ref + 0.5)/ln 2, minus the synonymous-codon median (not a log2 … | chain 1 K576Q |
| 0.625 DMS score: mean over two replicates of log2(f_test/f_ref + 0.5)/ln 2, minus the synonymous-codon median (not a log2 … | chain 1 N556G |
| 0.279 DMS score: mean over two replicates of log2(f_test/f_ref + 0.5)/ln 2, minus the synonymous-codon median (not a log2 … | chain 1 N556T |
| -0.361 DMS score: mean over two replicates of log2(f_test/f_ref + 0.5)/ln 2, minus the synonymous-codon median (not a log2 … | chain 1 N556A |
| 0.444 DMS score: mean over two replicates of log2(f_test/f_ref + 0.5)/ln 2, minus the synonymous-codon median (not a log2 … | chain 1 N556C |
| 0.313 DMS score: mean over two replicates of log2(f_test/f_ref + 0.5)/ln 2, minus the synonymous-codon median (not a log2 … | chain 1 N556Y |

The next lines start with the variant.

| Variant | screen value |
| --- | --- |
| chain 1 A546I | 0.793 DMS score: mean over two replicates of log2(f_test/f_ref + 0.5)/ln 2, minus the synonymous-codon median (not a log2 … |
| chain 1 A546N | -0.272 DMS score: mean over two replicates of log2(f_test/f_ref + 0.5)/ln 2, minus the synonymous-codon median (not a log2 … |
| chain 1 A546S | 0.374 DMS score: mean over two replicates of log2(f_test/f_ref + 0.5)/ln 2, minus the synonymous-codon median (not a log2 … |
| chain 1 A546L | -0.283 DMS score: mean over two replicates of log2(f_test/f_ref + 0.5)/ln 2, minus the synonymous-codon median (not a log2 … |
| chain 1 A546W | -0.986 DMS score: mean over two replicates of log2(f_test/f_ref + 0.5)/ln 2, minus the synonymous-codon median (not a log2 … |
| chain 1 A546E | 0.502 DMS score: mean over two replicates of log2(f_test/f_ref + 0.5)/ln 2, minus the synonymous-codon median (not a log2 … |
| chain 1 A545Q | 0.22 DMS score: mean over two replicates of log2(f_test/f_ref + 0.5)/ln 2, minus the synonymous-codon median (not a log2 … |
| chain 1 A545R | -0.103 DMS score: mean over two replicates of log2(f_test/f_ref + 0.5)/ln 2, minus the synonymous-codon median (not a log2 … |
| chain 1 A545T | -0.0243 DMS score: mean over two replicates of log2(f_test/f_ref + 0.5)/ln 2, minus the synonymous-codon median (not a log2 … |
| chain 1 A539C | -0.17 DMS score: mean over two replicates of log2(f_test/f_ref + 0.5)/ln 2, minus the synonymous-codon median (not a log2 … |
| chain 1 D566Q | -2.94 DMS score: mean over two replicates of log2(f_test/f_ref + 0.5)/ln 2, minus the synonymous-codon median (not a log2 … |
| chain 1 D566A | -2.64 DMS score: mean over two replicates of log2(f_test/f_ref + 0.5)/ln 2, minus the synonymous-codon median (not a log2 … |
| chain 1 D566G | -2.66 DMS score: mean over two replicates of log2(f_test/f_ref + 0.5)/ln 2, minus the synonymous-codon median (not a log2 … |
| chain 1 D548F | -0.0924 DMS score: mean over two replicates of log2(f_test/f_ref + 0.5)/ln 2, minus the synonymous-codon median (not a log2 … |
| chain 1 D548A | 0.159 DMS score: mean over two replicates of log2(f_test/f_ref + 0.5)/ln 2, minus the synonymous-codon median (not a log2 … |
| chain 1 D548E | -0.357 DMS score: mean over two replicates of log2(f_test/f_ref + 0.5)/ln 2, minus the synonymous-codon median (not a log2 … |

| Variant | screen value |
| --- | --- |
| chain 1 D548V | 0.053 DMS score: mean over two replicates of log2(f_test/f_ref + 0.5)/ln 2, minus the synonymous-codon median (not a log2 … |
| chain 1 D548K | -0.245 DMS score: mean over two replicates of log2(f_test/f_ref + 0.5)/ln 2, minus the synonymous-codon median (not a log2 … |
| chain 1 D548R | -1.06 DMS score: mean over two replicates of log2(f_test/f_ref + 0.5)/ln 2, minus the synonymous-codon median (not a log2 … |
| chain 1 D542S | 0.456 DMS score: mean over two replicates of log2(f_test/f_ref + 0.5)/ln 2, minus the synonymous-codon median (not a log2 … |
| chain 1 D542E | 0.0251 DMS score: mean over two replicates of log2(f_test/f_ref + 0.5)/ln 2, minus the synonymous-codon median (not a log2 … |
| chain 1 D542P | 0.905 DMS score: mean over two replicates of log2(f_test/f_ref + 0.5)/ln 2, minus the synonymous-codon median (not a log2 … |
| chain 1 D542A | 0.327 DMS score: mean over two replicates of log2(f_test/f_ref + 0.5)/ln 2, minus the synonymous-codon median (not a log2 … |
| chain 1 D542G | 0.784 DMS score: mean over two replicates of log2(f_test/f_ref + 0.5)/ln 2, minus the synonymous-codon median (not a log2 … |
| chain 1 D568F | -2.94 DMS score: mean over two replicates of log2(f_test/f_ref + 0.5)/ln 2, minus the synonymous-codon median (not a log2 … |
| chain 1 D568G | -2.49 DMS score: mean over two replicates of log2(f_test/f_ref + 0.5)/ln 2, minus the synonymous-codon median (not a log2 … |
| chain 1 D568A | -1.81 DMS score: mean over two replicates of log2(f_test/f_ref + 0.5)/ln 2, minus the synonymous-codon median (not a log2 … |
| chain 1 D567V | -2.81 DMS score: mean over two replicates of log2(f_test/f_ref + 0.5)/ln 2, minus the synonymous-codon median (not a log2 … |
| chain 1 D567G | -2.86 DMS score: mean over two replicates of log2(f_test/f_ref + 0.5)/ln 2, minus the synonymous-codon median (not a log2 … |
| chain 1 D567E | -1.62 DMS score: mean over two replicates of log2(f_test/f_ref + 0.5)/ln 2, minus the synonymous-codon median (not a log2 … |
| chain 1 D567N | -1.8 DMS score: mean over two replicates of log2(f_test/f_ref + 0.5)/ln 2, minus the synonymous-codon median (not a log2 … |
